B1: LINE1-full (parent)
chain: UACGUAGGUGGUUUUCCCCUGAUAGUGCUAAGGGGGCCUGGAAGUUUGGACUGGGCAGAGCUCAACACAGCGUGGCAAAGUGGCUGUGGCUAGACUGCCUCUCUGGAUUCCUCGUCACUCAGCAGGGCAUCUCUGAGAGAAAUGCC

In this data set the parent is B1. The data set is described as follows: self-cleavage, relative activity (ratio to wild type); higher = more cleavage; in vitro, sequencing; the parent is a self-cleaving ribozyme.
Regarding C19U U96A, the self-cleavage is 0.07.
To U20A C99A belongs 0.74; to C19U C95U, 0.43.
To C19U G54A belongs 0.57; to U20C A107G, 1.6; to U20C A107U, 1.34.
Next, U20C C99U: 0.68; U20A A138U: 1.19.
In the case of U20C G40C, the self-cleavage is 2.31.
Next, U20A A129G: 0.97; U20A G53U: 1.1.
To U20C G54U belongs 0.91.
Next, U20A A92U: 0.92; U20A A92G: 0.05; U20C C28A: 0.84.
On to U20A U73C, for which the self-cleavage amounted to 1.42.
To U20A U73A belongs 1.5; to C19U U143C, 0.98.
Next, U20A U134A: 0.92.
Next, C19U G32A: 0.87; U20A C110A: 1.4.
Consider U20A U112C, for which the self-cleavage was determined as 0.79.
Next, U20A A22U: 1.56; U20A A22G: 0.69.
To U20A A57G belongs 1; to U20A A57U, 0.11; to U20C G72C, 2.53.
With U20A G127A, the self-cleavage stood at 1.1.
As for U20C G35A, the self-cleavage came out at 1.73.
Next, C19U U73A: 1.15; C19U U73C: 0.85; U20C G55A: 0.25.
With U20A C145U, the self-cleavage was determined as 1.13.
Next, U20C A121G: 1.35; C19U U85C: 0.21.
Next, U20A G72A: 1.31; U20C A140G: 1.35.
In the case of U20A G122U, the self-cleavage was found to be 1.59.
Next, U20C G21A: 1.12.
Next, U20C C38A: 1.11; U20C G70A: 0.14.
In the case of U20C G70U, the self-cleavage stood at 0.05.
Next, U20A A78U: 1.34; U20C C56U: 0.11; U20A A65G: 0.11.
Consider U20A A67U, for which the self-cleavage was found to be 0.13.
For the variant U20A A67G, the self-cleavage stood at 0.45.
To U20A G86A belongs 0.18; to C19U A141U, 1; to C19U A141G, 0.99.
With U20C A78U, the self-cleavage was found to be 1.86.
To U20A C38A belongs 1.01.
To U20A U102C belongs 1.46; to C19U U91C, 0.62; to U20C G88A, 0.06.
To U20C C63U belongs 0.48; to U20A A64G, 0.46.
U20A: the self-cleavage turned out to be 1.21.
Next, U20C: 1.37.
To U20C C113A belongs 1.06.
Next, C19U G89A: 0.11.
On to U20A C37G, for which the self-cleavage was determined as 2.63.
To U20C G93A belongs 0.04.
To U20A U29A belongs 1.05; to U20A G36A, 0.94.
To U20A G36C belongs 0.93; to U20A A77U, 1.14.
For the variant U20A A77C, the self-cleavage worked out at 1.75.
To U20A A77G belongs 2.25.
Next, C19U U102A: 1.19.
Next, U20C C111U: 1.03; U20C A50G: 0.66; U20A A42U: 0.9.
As for C19U G74A, the self-cleavage came out at 1.12.
To C19U U115A belongs 1.04.
Take U20A G126A: the self-cleavage was 1.28.
To U20A U26C belongs 1.11; to C19U G114A, 1.28.
For the variant C19U C84U, the self-cleavage amounted to 0.22.
On to U20A A50U, for which the self-cleavage is 1.06.
Consider U20C G126U, for which the self-cleavage turned out to be 1.92.
Take U20C A136C: the self-cleavage stood at 1.74.
To U20C A136G belongs 1.26.
Next, U20C A59G: 0.11; U20C C37G: 1.08.
To U20C C37U belongs 1.33.
For U20C A79G, the self-cleavage worked out at 1.5.
To U20C A79U belongs 1.7; to U20C A64U, 0.65.
Next, U20C A64G: 0.41.
For the variant U20A A142G, the self-cleavage was determined as 1.08.
To U20C C110U belongs 1.4; to U20C A92C, 0.14; to U20C A22G, 1.04.
On to U20C A22U, for which the self-cleavage amounted to 1.12.
Next, U20A C56U: 0.18; U20C G27A: 1.12.
To C19U C51U belongs 1.01; to U20A U119C, 1.05; to U20A U119A, 1.47.
Regarding U20A U45C, the self-cleavage came out at 1.36.
To U20C A31U belongs 1.08.
To U20C A31G belongs 1.16; to U20A U62C, 0.06.
Regarding U20A G34A, the self-cleavage is 0.88.
Next, U20C C103A: 1.49; U20A A69C: 0.06.
Regarding U20A A69U, the self-cleavage was 0.1.
Next, U20A C28U: 1.3.
As for U20C C123A, the self-cleavage was determined as 1.34.
Next, U20C C123U: 0.91; C19U U46C: 1; U20A U52A: 0.54.
To U20A U52C belongs 1.77; to U20A U52G, 1.58; to U20A A136U, 1.38.
U20A A117U: the self-cleavage turned out to be 1.49.
Take U20A A117C: the self-cleavage stood at 1.77.
Next, U20A A117G: 1.94; U20A A121G: 1.14.
With U20A A121U, the self-cleavage was determined as 1.55.
To U20C G74U belongs 1.46.
Next, U20A U108G: 0.53; U20A A79G: 0.92; U20C A69U: 0.07.
Next, U20C A69G: 0.66; U20A U91C: 0.65; U20C G89A: 0.09.
As for C19U U104A, the self-cleavage is 1.07.
Next, C19U U104C: 0.65; U20C A65G: 0.06; U20C C71U: 0.77.
To U20A U39C belongs 0.93.
To C19U C38A belongs 1.13; to C19U U62A, 0.07; to U20C A77G, 1.7.
In the case of U20C A77U, the self-cleavage was 1.02.
As for C19U U130C, the self-cleavage is 1.08.
Next, C19U U45C: 0.86; C19U U45A: 1.43.
Next, U20C A129G: 2.29; U20C A129U: 1.3; U20A U132A: 1.61.
Turning to U20C G60U, the self-cleavage stood at 0.05.
Next, U20C G36C: 1.51; U20A G44U: 1.2.
To C19U U81A belongs 1.05.
To U20A U130C belongs 1.45.
U20A U130A: the self-cleavage turned out to be 0.32.
On to U20A A24U, for which the self-cleavage is 1.41.
To U20A C95A belongs 0.09; to U20A C95U, 0.13; to U20A A43U, 1.46.
To U20C C98A belongs 0.07; to C19U A136G, 0.95.
To U20A G48U belongs 1.42; to U20A G48A, 0.77.
As to C19U U47C, the self-cleavage was determined as 0.98.
As to U20C A117G, the self-cleavage came out at 1.59.
To U20C A42U belongs 1.06.
Next, U20A G137A: 1.29; U20A U115C: 1.66; U20A A59U: 0.7.
Consider U20A U85C, for which the self-cleavage worked out at 0.09.
On to U20C A43G, for which the self-cleavage worked out at 1.35.
Next, U20C A43U: 1.4; C19U G125U: 1.81.

The values above are taken from the RNAGym collection of RNA variant scans (doi:10.7554/elife.90254).
